Reference: the supplement of paper PMC11246515
± gives the standard deviation of the averaged measurements.

Assay: total protein half-life in vivo (active degradation + dilution); higher = more stable protein
[1] = E. coli NCM3722 delta-clpP delta-lon delta-hslV, growth: N-lim chemostat, doubling time 6 h
[2] = E. coli NCM3722 delta-clpP, growth: N-lim chemostat, doubling time 6 h
[3] = E. coli NCM3722 delta-hslV, growth: N-lim chemostat, doubling time 6 h
[4] = E. coli NCM3722 delta-lon, growth: N-lim chemostat, doubling time 6 h
[5] = E. coli NCM3722 delta-smpB, growth: N-lim chemostat, doubling time 6 h
[6] = wild type E. coli NCM3722, growth: C-lim chemostat, doubling time 3 h
[7] = wild type E. coli NCM3722, growth: C-lim chemostat, doubling time 6 h
[8] = wild type E. coli NCM3722, growth: C-lim chemostat, doubling time 12 h
[9] = wild type E. coli NCM3722, growth: N-lim chemostat, doubling time 6 h
[10] = wild type E. coli NCM3722, growth: N-lim chemostat, doubling time 12 h
[11] = wild type E. coli NCM3722, growth: P-lim chemostat, doubling time 6 h
[12] = wild type E. coli NCM3722, growth: P-lim chemostat, doubling time 12 h

Sequence	total protein half-life in vivo [1] [h]	total protein half-life in vivo [2] [h]	total protein half-life in vivo [3] [h]	total protein half-life in vivo [4] [h]	total protein half-life in vivo [5] [h]	total protein half-life in vivo [6] [h]	total protein half-life in vivo [7] [h]	total protein half-life in vivo [8] [h]	total protein half-life in vivo [9] [h]	total protein half-life in vivo [10] [h]	total protein half-life in vivo [11] [h]	total protein half-life in vivo [12] [h]
MKMNKSLIVLCLSAGLLASAPGISLADVNYVPQNTSDAPAIPSAALQQLTWTPVDQSKTQTTQLATGGQQLNVPGISGPVAAYSVPANIGELTLTLTSEVNKQTSVFAPNVLILDQNMTPSAFFPSSYFTYQEPGVMSADRLEGVMRLTPALGQQKLYVLVFTTEKDLQQTTQLLDPAKAYAKGVGNSIPDIPDPVARHTTDGLLKLKVKTNSSSSVLVGPLFGSSAPAPVTVGNTAAPAVAAPAPAPVKKSEPMLNDTESYFNTAIKNAVAKGDVDKALKLLDEAERLGSTSARSTFISSVKGKG	5.04 ± 2.7	3.08	6.28	3.75 ± 0.98	2.82 ± 0.1	2.84 ± 0.031	4.94 ± 0.13	10.5 ± 1.6	3.93 ± 0.67	7.51 ± 0.25	4.18	6.149 ± 0.0079
MKMVSRITAIGLAGVAICYLGLSGYVWYHDNKRSKQADVQASAVSENNKVLGFLREKGCDYCHTPSAELPAYYYIPGAKQLMDYDIKLGYKSFNLEAVRAALLADKPVSQSDLNKIEWVMQYETMPPTRYTALHWAGKVSDEERAEILAWIAKQRAEYYASNDTAPEHRNEPVQPIPQKLPTDAQKVALGFALYHDPRLSADSTISCAHCHALNAGGVDGRKTSIGVGGAVGPINAPTVFNSVFNVEQFWDGRAATLQDQAGGPPLNPIEMASKSWDEIIAKLEKDPQLKTQFLEVYPQGFSGENITDAIAEFEKTLITPDSPFDKWLRGDENALTAQQKKGYQLFKDNKCATCHGGIILGGRSFEPLGLKKDFNFGEITAADIGRMNVTKEERDKLRQKVPGLRNVALTAPYFHRGDVPTLDGAVKLMLRYQVGKELPQEDVDDIVAFLHSLNGVYTPYMQDKQ	> 8	4.69	5.53	–	4.76	3.28 ± 0.2	5.27 ± 1	12.2	5.16	10.8	5.31	11 ± 1.4
MKNFEVLQPLQNSLSGLPLWVSERILQQINQLTHYEPVIGIMGKTGAGKSSLCNALFAGEVSPVSDVAACTRDPLRFRLQIGEHFMTIVDLPGVGESGVRDTEYAALYREQLPRLDLILWLIKADDRALATDEHFYRQVIGEAYRHKMLFVISQSDKAEPTSGGNILSTEQKQNISRKICLLHELFQPVHPVCAVSVRLQWGLRVMAERMIKCLPREASSPVVALLQHPFRTTVAREQARDDFGETVGAILDTVSTFPLIPAPVRTIIQAVRSSVVSVARAVWDFFF	–	–	3.97	–	–	–	–	10.6	–	–	–	–
MKNIKFSLAWQILFAMVLGILLGSYLHYHSDSRDWLVVNLLSPAGDIFIHLIKMIVVPIVISTLVVGIAGVGDAKQLGRIGAKTIIYFEVITTVAIILGITLANVFQPGAGVDMSQLATVDISKYQSTTEAVQSSSHGIMGTILSLVPTNIVASMAKGEMLPIIFFSVLFGLGLSSLPATHREPLVTVFRSISETMFKVTHMVMRYAPVGVFALIAVTVANFGFSSLWPLAKLVLLVHFAILFFALVVLGIVARLCGLSVWILIRILKDELILAYSTASSESVLPRIIEKMEAYGAPVSITSFVVPTGYSFNLDGSTLYQSIAAIFIAQLYGIDLSIWQEIILVLTLMVTSKGIAGVPGVSFVVLLATLGSVGIPLEGLAFIAGVDRILDMARTALNVVGNALAVLVIAKWEHKFDRKKALAYEREVLGKFDKTADQ	–	2.63	–	–	–	2.87	4.95	> 16	–	–	–	6.24
MKNIVPDYRLDMVGEPCPYPAVATLEAMPQLKKGEILEVVSDCPQSINNIPLDARNHGYTVLDIQQDGPTIRYLIQK [P0AA31]	–	–	–	–	–	3.04 ± 0.69	5.2 ± 0.98	6.03	–	–	–	–
MKNLIAELLFKLAQKEEESKELCAQVEALEIIVTAMLRNMAQNDQQRLIDQVEGALYEVKPDASIPDDDTELLRDYVKKLLKHPRQ [P0AAN9]	–	3.74 ± 0.97	4.38 ± 0.94	6.09 ± 1.4	4.195 ± 0.0044	3.54 ± 0.59	4.96 ± 0.47	7.25 ± 1.9	3.43 ± 0.67	8.18 ± 5.6	4.02 ± 1.8	10.1 ± 0.93
MKNQAHPIIVVKRRKAKSHGAAHGSWKIAYADFMTAMMAFFLVMWLISISSPKELIQIAEYFRTPLATAVTGGDRISNSESPIPGGGDDYTQSQGEVNKQPNIEELKKRMEQSRLRKLRGDLDQLIESDPKLRALRPHLKIDLVQEGLRIQIIDSQNRPMFRTGSADVEPYMRDILRAIAPVLNGIPNRISLSGHTDDFPYASGEKGYSNWELSADRANASRRELMVGGLDSGKVLRVVGMAATMRLSDRGPDDAVNRRISLLVLNKQAEQAILHENAESQNEPVSALEKPEVAPQVSVPTMPSAEPR [P0AF06]	–	–	–	–	–	0.683 ± 0.017	1.21	1.33	–	–	–	–
MKNSKAILQVPGTMKIISAEIPVPKEDEVLIKVEYVGICGSDVHGFESGPFIPPKDPNQEIGLGHECAGTVVAVGSRVRKFKPGDRVNIEPGVPCGHCRYCLEGKYNICPDVDFMATQPNYRGALTHYLCHPESFTYKLPDNMDTMEGALVEPAAVGMHAAMLADVKPGKKIIILGAGCIGLMTLQACKCLGATEIAVVDVLEKRLAMAEQLGATVVINGAKEDTIARCQQFTEDMGADIVFETAGSAVTVKQAPYLVMRGGKIMIVGTVPGDSAINFLKINREVTIQTVFRYANRYPVTIEAISSGRFDVKSMVTHIYDYRDVQQAFEESVNNKRDIIKGVIKISD	4.54	4.02	2.93	3.28	3.59 ± 0.58	2.63 ± 0.11	4.65 ± 0.57	8.14 ± 1.7	3.39 ± 0.43	5.18 ± 0.57	4.95 ± 0.44	9.79 ± 0.17
MKNVFKALTVLLTLFSLTGCGLKGPLYFPPADKNAPPPTKPVETQTQSTVPDKNDRATGDGPSQVNY [P0ADN6]	5.56 ± 0.35	5.27 ± 1.1	6.91 ± 1.1	6.29 ± 0.95	6.35 ± 0.59	2.95 ± 0.47	5.25 ± 1.2	> 16	6.03 ± 1.2	–	–	11.8 ± 0.15
MKNVGDLMQRLQKMMPAHIKPAFKTGEELLAWQKEQGAIRSAALERENRAMKMQRTFNRSGIRPLHQNCSFENYRVECEGQMNALSKARQYVEEFDGNIASFIFSGKPGTGKNHLAAAICNELLLRGKSVLIITVADIMSAMKDTFRNSGTSEEQLLNDLSNVDLLVIDEIGVQTESKYEKVIINQIVDRRSSSKRPTGMLTNSNMEEMTKLLGERVMDRMRLGNSLWVIFNWDSYRSRVTGKEY [P0AEF0]	3.95 ± 0.25	2.75 ± 0.059	2.11 ± 0.34	2.64 ± 0.32	2.33 ± 0.07	2.05 ± 0.26	4.67 ± 0.49	5.08 ± 0.67	2.18 ± 0.26	3.42 ± 0.18	3.49 ± 0.45	7.41 ± 2.5
